Data reported in paper PMC7913688, “Human Rev1 relies on insert-2 to promote selective binding and accurate replication of stabilized G-quadruplex motifs”.

Assays:
[1] = biological target: T1, hRev1 330-833 polymerase core (human, UniProt Q9UBZ9 330-833); assay: fluorescence polarization; 100 mM KCl; Fluorescence polarization: 1 nM FAM-DNA, 100 mM KCl or LiCl; DNA annealed in 50 mM HEPES pH 7.5; full buffer as in cited ref 17, temperature not stated. Footprinting: 50 mM HEPES pH 7.5, 100 mM KCl, 10 uM protein, 30 uM ssDNA, room temperature; conditions: protein: recombinant
T1 sequence: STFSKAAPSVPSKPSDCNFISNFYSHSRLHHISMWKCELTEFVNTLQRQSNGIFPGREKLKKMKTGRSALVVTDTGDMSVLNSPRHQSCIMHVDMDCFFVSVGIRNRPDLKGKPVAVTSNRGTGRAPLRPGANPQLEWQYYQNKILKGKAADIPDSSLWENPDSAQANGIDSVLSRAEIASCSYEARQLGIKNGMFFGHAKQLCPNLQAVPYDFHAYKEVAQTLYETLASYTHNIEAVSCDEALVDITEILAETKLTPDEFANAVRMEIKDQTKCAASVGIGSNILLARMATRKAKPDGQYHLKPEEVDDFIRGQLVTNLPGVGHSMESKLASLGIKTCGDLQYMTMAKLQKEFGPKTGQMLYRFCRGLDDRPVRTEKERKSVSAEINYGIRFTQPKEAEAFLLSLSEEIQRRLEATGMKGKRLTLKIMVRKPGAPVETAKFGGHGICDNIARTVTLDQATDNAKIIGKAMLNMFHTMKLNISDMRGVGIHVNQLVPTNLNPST

[2] = biological target: T1, hRev1 330-833 polymerase core; assay: fluorescence polarization; 100 mM KCl (text: 406 +/- 38); Fluorescence polarization: 1 nM FAM-DNA, 100 mM KCl or LiCl; DNA annealed in 50 mM HEPES pH 7.5; full buffer as in cited ref 17, temperature not stated. Footprinting: 50 mM HEPES pH 7.5, 100 mM KCl, 10 uM protein, 30 uM ssDNA, room temperature; conditions: protein: recombinant; label: 5'-FAM; hybrid G4 in K+
[3] = biological target: T1, hRev1 330-833 polymerase core; assay: fluorescence polarization; 100 mM KCl (text: 1246 +/- 196); Fluorescence polarization: 1 nM FAM-DNA, 100 mM KCl or LiCl; DNA annealed in 50 mM HEPES pH 7.5; full buffer as in cited ref 17, temperature not stated. Footprinting: 50 mM HEPES pH 7.5, 100 mM KCl, 10 uM protein, 30 uM ssDNA, room temperature; conditions: protein: recombinant; label: 5'-FAM
[4] = biological target: T1, hRev1 330-833 polymerase core; assay: fluorescence polarization; 100 mM LiCl; Fluorescence polarization: 1 nM FAM-DNA, 100 mM KCl or LiCl; DNA annealed in 50 mM HEPES pH 7.5; full buffer as in cited ref 17, temperature not stated. Footprinting: 50 mM HEPES pH 7.5, 100 mM KCl, 10 uM protein, 30 uM ssDNA, room temperature; conditions: protein: recombinant; label: 5'-FAM
[5] = biological target: T1, hRev1 330-833 polymerase core; assay: fluorescence polarization; 100 mM KCl (text: 127 +/- 14); Fluorescence polarization: 1 nM FAM-DNA, 100 mM KCl or LiCl; DNA annealed in 50 mM HEPES pH 7.5; full buffer as in cited ref 17, temperature not stated. Footprinting: 50 mM HEPES pH 7.5, 100 mM KCl, 10 uM protein, 30 uM ssDNA, room temperature; conditions: protein: recombinant; label: 5'-FAM; antiparallel G4 in K+
[6] = biological target: T1, hRev1 330-833 polymerase core; assay: fluorescence polarization; 100 mM LiCl (text: 139 +/- 17); Fluorescence polarization: 1 nM FAM-DNA, 100 mM KCl or LiCl; DNA annealed in 50 mM HEPES pH 7.5; full buffer as in cited ref 17, temperature not stated. Footprinting: 50 mM HEPES pH 7.5, 100 mM KCl, 10 uM protein, 30 uM ssDNA, room temperature; conditions: protein: recombinant; label: 5'-FAM; antiparallel G4 in K+
[7] = label: 5'-FAM on template, parallel G4 in 5' overhang 18 nt, 11 bp duplex

B1: Myc 14/23 primer-template (mixed)
DNA 1: AGGGTGGGTAGGGTGGGTTATGAGATGAT
DNA 2: ATCATCTCATA
In the case of B1, the Kd [1, 7] is reported as 0.059 ± 0.009 µM.

In the case of AGGGAGGGTGGGAAGGGTTATGAGATGAT (structured_DNA) [Myc 2/11 ss G4], the Kd ([1]; label: 5'-FAM, parallel G4 (1:1:2 loops) in K+) is reported as 0.022 ± 0.003 µM.

B2: Rev1-prom primer-template (mixed)
DNA 1: AGGGCGGGGCCGGGGAGGGTATGAGATGAT
DNA 2: ATCATCTCATA
Work on B2 yielded a Kd ([1]; label: 5'-FAM on template, parallel G4 in 5' overhang 19 nt, 11 bp duplex) of 0.011 ± 0.002 µM.

B3: Non-G4 Rev1-prom primer-template (mixed)
DNA 1: AGCGCGCGGCCGGCGAGCGTATGAGATGAT
DNA 2: ATCATCTCATA
B3 gave a Kd ([1]; label: 5'-FAM on template, 5' overhang 19 nt, 11 bp duplex) of 0.154 ± 0.03 µM.

TTGGGTTAGGGTTAGGGTTAGGGATATGAGATGAT (structured_DNA) [hTelo-4 ss G4] showed a Kd [2] of 0.41 ± 0.04 µM.

TTGCGTTAGCGTTAGCGTTAGCGATATGAGATGAT (ssDNA) [Non-G4 Telo-4 control ss] was tested, and the Kd [3] was 1.2 ± 0.2 µM and the Kd [4] was 0.92 ± 0.12 µM.

B4: hTelo-4 primer-template (mixed)
DNA 1: TTGGGTTAGGGTTAGGGTTAGGGATATGAGATGAT
DNA 2: ATCATCTCATA
B4 was tested, and the Kd ([1]; label: 5'-FAM on template, hybrid G4 in 5' overhang 24 nt, 11 bp duplex) was 0.84 ± 0.05 µM.

Binder AGCGCGCGGCCGGCGAGCGTATGAGATGAT (ssDNA) [Non-G4 Rev1-prom control ss] has a Kd ([1]; label: 5'-FAM) of 0.37 ± 0.07 µM and a Kd [4] of 0.26 ± 0.12 µM.

Work on AGCGCGCTGTGCGAAGAGCGAATATGAGATGAT (ssDNA) [Non-G4 KRAS control ss] yielded a Kd ([1]; label: 5'-FAM) of 0.84 ± 0.09 µM and a Kd [4] of 1.62 ± 0.8 µM.

B5: Non-G4 KRAS primer-template (mixed)
DNA 1: AGCGCGCTGTGCGAAGAGCGAATATGAGATGAT
DNA 2: ATCATCTCATA
Binder B5 has a Kd ([1]; label: 5'-FAM on template, 5' overhang 22 nt, 11 bp duplex) of 1.12 ± 0.08 µM.

B6: KRAS 22RT primer-template (mixed)
DNA 1: AGGGCGGTGTGGGAAGAGGGAATATGAGATGAT
DNA 2: ATCATCTCATA
For B6, the Kd ([1]; label: 5'-FAM on template, parallel G4 in 5' overhang 22 nt, 11 bp duplex) was 0.12 ± 0.01 µM.

Work on AGGGCGGTGTGGGAAGAGGGAATATGAGATGAT (structured_DNA) [KRAS 22RT ss G4] yielded a Kd ([1]; label: 5'-FAM, parallel G4 in K+) of 0.052 ± 0.01 µM.

AGGGCGGGGCCGGGGAGGGTATGAGATGAT (structured_DNA) [Rev1-prom ss G4] gave a Kd ([1]; label: 5'-FAM, parallel G4 (1:4:1 loops as stated) in K+) of 0.013 ± 0.003 µM.

TGGTTGGTGTGGTTGGTATGAGATGAT (structured_DNA) [TBA ss G4] showed a Kd [5] of 0.13 ± 0.01 µM and a Kd [6] of 0.14 ± 0.02 µM.

TGCTTGCTGTGCTTGCTATGAGATGAT (ssDNA) [Non-G4 TBA control ss] gave a Kd ([1]; label: 5'-FAM) of 0.38 ± 0.04 µM and a Kd [4] of 0.31 ± 0.04 µM.

B7: TBA primer-template (mixed)
DNA 1: TGGTTGGTGTGGTTGGTATGAGATGAT
DNA 2: ATCATCTCATA
B7 gave a Kd ([1]; label: 5'-FAM on template, antiparallel G4 in 5' overhang 16 nt, 11 bp duplex) of 0.165 ± 0.025 µM.

AGCGGCGCGCGCTTTAGGAAAAGCGCGCGTTATGAGATGAT (ssDNA) [Non-G4 Bcl2 control ss] gave a Kd ([1]; label: 5'-FAM) of 0.83 ± 0.31 µM and a Kd [4] of 0.75 ± 0.34 µM.

B8: Non-G4 Bcl2 primer-template (mixed)
DNA 1: AGCGGCGCGCGCTTTAGGAAAAGCGCGCGTTATGAGATGAT
DNA 2: ATCATCTCATA
With B8 the Kd ([1]; label: 5'-FAM on template, 5' overhang 30 nt, 11 bp duplex) was 0.66 ± 0.12 µM.

For AGGGGCGGGCGCTTTAGGAAAAGGGCGGGTTATGAGATGAT (structured_DNA) [Bcl2 1245 ss G4], the Kd ([1]; label: 5'-FAM, parallel G4 (13-nt loop) in K+) was 0.076 ± 0.016 µM.

B9: Bcl2 1245 primer-template (mixed)
DNA 1: AGGGGCGGGCGCTTTAGGAAAAGGGCGGGTTATGAGATGAT
DNA 2: ATCATCTCATA
Work on B9 yielded a Kd ([1]; label: 5'-FAM on template, parallel G4 in 5' overhang 30 nt, 11 bp duplex) of 0.097 ± 0.02 µM.

B10: Myc 2/11 primer-template (mixed)
DNA 1: AGGGAGGGTGGGAAGGGTTATGAGATGAT
DNA 2: ATCATCTCATA
Binder B10 has a Kd [1, 7] of 0.045 ± 0.006 µM.
